Source: the supplement of paper PMC7877785
± gives the uncertainty stated by the source.

Assay: self-splicing fitness, log relative to wild type (ln ratio); higher = more splicing; Tetrahymena group I intron in knt gene, E. coli kanamycin selection, DiMSum; sequences stand for … in CUCUCU…GGAGGGAAAAGUUAUCAGGCAUGCACCUGGUAGCUAGUCUUUAAACCAAUAGAUUGCAUCGGUUUAAAAGGCAAGACCGUCAAAUUGCGGGAAAGGGGUCAACAGCCGUUCAGUACCAAGUCUCAGGGGAAACUUUGAGAUGGCCUUGCAAAGGGUAUGGUAAUAAGCUGACGGACAUGGUCCUAACCACGCAGCCAAGUCCUAAGUCAACAGAUCUUCUGUUGAUAUGGAUGCAGUUCACAGACUAAAUGUCGGUCGGGGAAGAUGUAUUCUUCUCAUAAGAUAUAGUCGGACCUCUCCUUAAUGGGAGCUAGCGGAUGAAGUGAUGCAACACUGGAGCCGCUGGGAACUAAUUUGUAUGCGAAAGUAUAUUGAUUAGUUUUGGAGUACUCGUGGUCG
Method in brief: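 DiMSum derived fitness as the error-weighted combination of fold changes across replicates, kanamycin versus no kanamycin, normalised to wild type. E. coli BL21(DE3) held the library, which randomised all eight P1ex-region intron nucleotides within the knt kanamycin-resistance gene on pET-22b(+). Six replicate transformations grew overnight at 37°C or 30°C on LB agar with or without 25 μg/mL kanamycin, also containing 100 μg/mL carbenicillin, 50 μM IPTG and 0.2% rhamnose, and pooled colonies were amplicon-sequenced on an Illumina HiSeq 2500.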

Sequence | self-splicing fitness (ln) (30 °C) | self-splicing fitness (ln) (37 °C)
AUCAAGCAAUAUUACGUAUU | -2.7 ± 0.09 | -1.5 ± 0.11
CCAAAGCAAUAUUACGACAG | -0.638 ± 0.066 | -0.249 ± 0.089
CAUUAGCAAUAUUACGCUGG | -2.7 ± 0.13 | -1.67 ± 0.14
CCGUAGCAAUAUUACGUUAU | -2.06 ± 0.12 | -2.35 ± 0.23
CCUUAGCAAUAUUACGACUA |  | -2.23 ± 0.5
GGUUAGCAAUAUUACGUGAU | -2.18 ± 0.19 | -1.14 ± 0.2
GCAUAGCAAUAUUACGUUAA | -2.44 ± 0.19 | -1.81 ± 0.15
AAUAAGCAAUAUUACGCUAA | -2.46 ± 0.16 | -0.891 ± 0.13
CUUUAGCAAUAUUACGAAUC | -1.01 ± 0.45 | 
ACUCAGCAAUAUUACGAGCC | -1.32 ± 0.079 | -0.908 ± 0.11
UGUUAGCAAUAUUACGCAUC |  | -1.93 ± 0.27
AGUCAGCAAUAUUACGGGGU | -4.54 ± 0.31 | -1.5 ± 0.15
AUAAAGCAAUAUUACGAGGU | -3.99 ± 0.16 | -1.9 ± 0.21
UUCGAGCAAUAUUACGUGGA | -2.74 ± 0.22 | -2.58 ± 0.2
CCGCAGCAAUAUUACGGUAU | -4.73 ± 0.23 | -3.44 ± 0.17
ACAAAGCAAUAUUACGCUAA | -2.51 ± 0.13 | -1.14 ± 0.086
GGGAAGCAAUAUUACGUUGG | -3.77 ± 0.3 | -1.1 ± 0.24
AGAUAGCAAUAUUACGGUGU | -2.01 ± 0.096 | -1.15 ± 0.1
UUUCAGCAAUAUUACGGAGC | -3.25 ± 0.36 | -3.28 ± 0.43
UUCUAGCAAUAUUACGGGUA | -0.701 ± 0.18 | -0.842 ± 0.2
AAUAAGCAAUAUUACGAACG | -1.5 ± 0.12 | -0.285 ± 0.17
CGAUAGCAAUAUUACGAACA | -2.13 ± 0.47 | -1.38 ± 0.27
UACAAGCAAUAUUACGGGUC | -3.32 ± 0.16 | -2.78 ± 0.16
UCGGAGCAAUAUUACGGUUC |  | -2.89 ± 0.43
UUGCAGCAAUAUUACGGGAU | -3.42 ± 0.17 | -1.68 ± 0.12

Sequence | self-splicing fitness (ln) (30 °C) | self-splicing fitness (ln) (37 °C)
CUAUAGCAAUAUUACGCCCG | -0.353 ± 0.24 | -0.0929 ± 0.34
UAGCAGCAAUAUUACGCGAC | -3.54 ± 0.21 | -1.67 ± 0.21
UCCGAGCAAUAUUACGCCUC |  | -1.34 ± 0.33
CAAAAGCAAUAUUACGCCUU | -3.67 ± 0.17 | -0.986 ± 0.12
CGGGAGCAAUAUUACGAACG | -4.35 ± 0.24 | -3 ± 0.23
ACGAAGCAAUAUUACGCACU | -0.656 ± 0.094 | -0.172 ± 0.11
UAACAGCAAUAUUACGUGGU | -2.87 ± 0.12 | -2.93 ± 0.2
AUAUAGCAAUAUUACGGCGA | -0.84 ± 0.12 | -0.69 ± 0.13
GCCCAGCAAUAUUACGCUGC |  | -1.55 ± 0.41
CAGAAGCAAUAUUACGGUCG | -0.112 ± 0.075 | 0.395 ± 0.11
ACCCAGCAAUAUUACGACUC | -0.5 ± 0.061 | -0.482 ± 0.079
CACGAGCAAUAUUACGCUAG |  | -2.4 ± 0.28
GCCUAGCAAUAUUACGGGUG | -1.02 ± 0.056 | -0.101 ± 0.067
GACCAGCAAUAUUACGCACA | -0.51 ± 0.05 | -0.0966 ± 0.07
GAAUAGCAAUAUUACGCCCG | -1.28 ± 0.18 | -0.828 ± 0.23
UGAUAGCAAUAUUACGUGCC | -2.61 ± 0.2 | -1.26 ± 0.2
CGCUAGCAAUAUUACGGCCG | -1.19 ± 0.17 | -1.11 ± 0.14
UCUUAGCAAUAUUACGGAUA | -2.68 ± 0.25 | -2.18 ± 0.24
UACAAGCAAUAUUACGAUAU | -2.75 ± 0.15 | -1.66 ± 0.19
GUGAAGCAAUAUUACGUGGC | -2.6 ± 0.14 | -2.41 ± 0.23
UGGAAGCAAUAUUACGAGUC | -2.78 ± 0.29 | -3.37 ± 0.33
UUGCAGCAAUAUUACGUCAU | -2.15 ± 0.098 | -1.13 ± 0.1
GGAAAGCAAUAUUACGUGUU | -2.76 ± 0.11 | -1.66 ± 0.12
UAGCAGCAAUAUUACGUUAC |  | -1.36 ± 0.22
GUUGAGCAAUAUUACGCCCG | -2.7 ± 0.49 | 

Sequence | self-splicing fitness (ln) (30 °C) | self-splicing fitness (ln) (37 °C)
UACGAGCAAUAUUACGAUUU | -2.88 ± 0.17 | -1.3 ± 0.16
UCACAGCAAUAUUACGAAAG | -3.82 ± 0.25 | -2.73 ± 0.23
GAGAAGCAAUAUUACGAUAA | -2.02 ± 0.14 | -0.42 ± 0.15
AGGAAGCAAUAUUACGACAU | -0.63 ± 0.014 | -0.543 ± 0.033
GUCAAGCAAUAUUACGCAGC |  | -3.49 ± 0.35
AAGUAGCAAUAUUACGUCCC | -0.0634 ± 0.3 | -0.156 ± 0.24
GAGAAGCAAUAUUACGCAGC | -3.2 ± 0.38 | -1.48 ± 0.26
UAAUAGCAAUAUUACGGCGU | -2.6 ± 0.19 | -1.6 ± 0.24
UACUAGCAAUAUUACGGUUG | -2.18 ± 0.081 | -1.06 ± 0.11
AACCAGCAAUAUUACGUCUA | -0.091 ± 0.062 | -0.6 ± 0.067
CGGCAGCAAUAUUACGCCGG | -2.15 ± 0.17 | -2.16 ± 0.23
AGCAAGCAAUAUUACGAAUC | -4.48 ± 0.42 | -1.81 ± 0.2
GCUUAGCAAUAUUACGAGGU | -4.11 ± 0.21 | -2.55 ± 0.18
AAAUAGCAAUAUUACGGAAC | -4.71 ± 0.45 | -1.74 ± 0.36
ACAAAGCAAUAUUACGGUUA | -1.58 ± 0.092 | -0.719 ± 0.078
ACUCAGCAAUAUUACGAUGU | -1.35 ± 0.064 | -0.811 ± 0.074
GCACAGCAAUAUUACGCCAU | -3.37 ± 0.12 | -2.42 ± 0.12
UUCGAGCAAUAUUACGUUGC | -2.18 ± 0.23 | -1.27 ± 0.28
GCUCAGCAAUAUUACGUCCA | -1.28 ± 0.11 | -0.711 ± 0.13
UUCGAGCAAUAUUACGUUUA | -2 ± 0.16 | -1.54 ± 0.16
CAAUAGCAAUAUUACGGCUG | -0.286 ± 0.084 | -0.379 ± 0.098
UUUAAGCAAUAUUACGACUA | 0.0508 ± 0.11 | -0.0992 ± 0.096
UGCUAGCAAUAUUACGGGUG | -1.79 ± 0.098 | -1.3 ± 0.11
GGGAAGCAAUAUUACGGUAA | -3.01 ± 0.41 | -0.554 ± 0.17
UCCUAGCAAUAUUACGUAAA | -1.84 ± 0.19 | 0.0696 ± 0.22

Sequence | self-splicing fitness (ln) (30 °C) | self-splicing fitness (ln) (37 °C)
CACCAGCAAUAUUACGCGCA | -2.03 ± 0.084 | -1.51 ± 0.085
UCAAAGCAAUAUUACGCCAG | -1.35 ± 0.13 | -0.892 ± 0.18
UAUCAGCAAUAUUACGGCUU | -1.03 ± 0.075 | -0.106 ± 0.11
CAUCAGCAAUAUUACGCUAU | -2.87 ± 0.13 | -2.64 ± 0.2
AGAGAGCAAUAUUACGCUAC |  | -2.33 ± 0.45
AUGAAGCAAUAUUACGCGCC | -0.426 ± 0.085 | -0.127 ± 0.11
CAGAAGCAAUAUUACGAACU | -2.12 ± 0.13 | -1.72 ± 0.17
UACGAGCAAUAUUACGGCUG | -0.628 ± 0.077 | -0.0702 ± 0.1
GGGCAGCAAUAUUACGUACG | -0.697 ± 0.12 | -0.0767 ± 0.14
CUCGAGCAAUAUUACGGUUU | -3.87 ± 0.27 | 
ACUCAGCAAUAUUACGCUGG | -2.43 ± 0.12 | -2.86 ± 0.22
UCCCAGCAAUAUUACGAACG | -2.94 ± 0.31 | -2.39 ± 0.29
UGACAGCAAUAUUACGCGGA | -1.75 ± 0.12 | -1 ± 0.097
CUCAAGCAAUAUUACGAAGG | -1.11 ± 0.071 | -1.42 ± 0.15
GACUAGCAAUAUUACGACUC | -0.54 ± 0.097 | 0.55 ± 0.14
UUAAAGCAAUAUUACGGUGA | -0.488 ± 0.097 | 0.559 ± 0.13
GAGGAGCAAUAUUACGUGCC | -3.24 ± 0.26 | -2.41 ± 0.28
CCGCAGCAAUAUUACGCUGA | -3.21 ± 0.34 | 
ACGCAGCAAUAUUACGUAUC | -2.47 ± 0.2 | -1.18 ± 0.17
CACGAGCAAUAUUACGAAAU | -2.18 ± 0.19 | -2.81 ± 0.29
CGGUAGCAAUAUUACGGAAC |  | -2.37 ± 0.36
GUUGAGCAAUAUUACGCCUA | -1.73 ± 0.26 | -1.92 ± 0.3
GGGAAGCAAUAUUACGGCGA | -0.443 ± 0.12 | 0.0664 ± 0.12
CAUCAGCAAUAUUACGGGAC | -3.95 ± 0.46 | -2.51 ± 0.22
